Biological target: the molecule itself
Assay: cryo-EM structure; purified HsLRRC8D in 50 mM Tris pH 8.0, 150 mM NaCl, 5 mM dithiothreitol, 0.1% digitonin, 3 mg/mL, vitrified; single-particle analysis, C2 symmetry imposed; homo-hexamer ('dimer of trimers')

B1: human LRRC8D (leucine-rich repeat-containing 8 isoform D) wild-type protein (natural protein)
chain: MFTLAEVASLNDIQPTYRILKPWWDVFMDYLAVVMLMVAIFAGTMQLTKDQVVCLPVLPSPVNSKAHTPPGNAEVTTNIPKMEAATNQDQDGRTTNDISFGTSAVTPDIPLRATYPRTDFALPNQEAKKEKKDPTGRKTNLDFQQYVFINQMCYHLALPWYSKYFPYLALIHTIILMVSSNFWFKYPKTCSKVEHFVSILGKCFESPWTTKALSETACEDSEENKQRITGAQTLPKHVSTSSDEGSPSASTPMINKTGFKFSAEKPVIEVPSMTILDKKDGEQAKALFEKVRKFRAHVEDSDLIYKLYVVQTVIKTAKFIFILCYTANFVNAISFEHVCKPKVEHLIGYEVFECTHNMAYMLKKLLISYISIICVYGFICLYTLFWLFRIPLKEYSFEKVREESSFSDIPDVKNDFAFLLHMVDQYDQLYSKRFGVFLSEVSENKLREISLNHEWTFEKLRQHISRNAQDKQELHLFMLSGVPDAVFDLTDLDVLKLELIPEAKIPAKISQMTNLQELHLCHCPAKVEQTAFSFLRDHLRCLHVKFTDVAEIPAWVYLLKNLRELYLIGNLNSENNKMIGLESLRELRHLKILHVKSNLTKVPSNITDVAPHLTKLVIHNDGTKLLVLNSLKKMMNVAELELQNCELERIPHAIFSLSNLQELDLKSNNIRTIEEIISFQHLKRLTCLKLWHNKIVTIPPSITHVKNLESLYFSNNKLESLPVAVFSLQKLRCLDVSYNNISMIPIEIGLLQNLQHLHITGNKVDILPKQLFKCIKLRTLNLGQNCITSLPEKVGQLSQLTQLELKGNCLDRLPAQLGQCRMLKKSGLVVEDHLFDTLPLEVKEALNQDINIPFANGI
notes: Residues of the TEV site may remain at the C-terminus after cleavage; also called HsLRRC8D; not shown: GFP, C-terminal, cleaved; His8, C-terminal, cleaved
stoichiometry N: 6

Reference: publication PMC7229184, “Cryo-EM structure of the volume-regulated anion channel LRRC8D isoform identifies features important for substrate permeation” (Communications Biology, 2020)
